We go through nine sequences from a protein production outcome set (Wang et al. 2014).

A short description of this data set: label from the status in PepcDB records.
Turning to “MVKIEVAKPINFNRLITSKEAEVVSMRILNQPNSYISLFSLAKDEEITAEAMLGNRYYYCFNGNGEIFIENNKKTISNGDFLEITANHNYSIEARDNLKLIEIGEKIGDGNMENKTLKMLESASAFNLAEVVEYQEGKIVSKNLVAKPNLVMTIMSFWKGESLDPHKAPGDALVTVLDGEGKYYVDGKPFIVKKGESAVLPANIPHAVEAETENFKMLLILVKE”, the protein production result is listed as “not failed”. Turning to “MISKHQAVKKIFDQISDKYDLIDTIISLGLDQRWRRSLISNLKLMPGLQCLDCGAGSGKVTELIMESCDSCSVTALDITDSMFNPELTKRCKFVVSPAESLPFSDETFDRVSSAFLTRNLADVDKYFSEVYRVLKPGGIFVNLDIFNPTKPVFSQFFSLYFYRMVPFFGNHATHSRNYSYLANSVKFFYSPFILSKKLESKGFIVEPKDLFFGSVFMHIAQKKLEHHHHHH”, the protein production result is “not failed”. The same measure for “MKVYDVTAPIYEGMPVYKNKPEKQPKRTTITNGYVTESRIDMDVHTGTHIDAPLHMVEGGATFETIPLNDLVGPCKLFDLTHVNDRITKDDIAHLDIQEGDFVLFKTKNSFEDAFHFEFIFVAEDAARYLADKQIRGVGIDALGIERAQEGHPTHKTLFSAGVIIIEGLRLKDVPEGRYFMVAAPLKLVGTDAAPARVLLFDREP”: “not failed”; for “MISFSVMALVFGVVFLAELPDKTALAGLVLGTRYRASYVFAGVAAAFALHVALAVAAGSVLTLLPQQIVHALTGVLFLGGAAVLLMKKGEGEEEIRKPENQSFWKVSSAGFMLILVAEFGDLTQIMTANLAARYDDPLSVGLGAVLALWAVAGLGIVGGRALMKRVPLRLITKVAALLMLALGAWSLYEAVAG”: “failed”.

With “MFLTAVNPQPLSTPSWQIETKYSTKVLTGNWMEERRKFTRDTDKTPQSIYRKEYIPFPDHRPDQISRWYGKRKVEGLPYKHLITHHQEPPHRYLISTYDDHYNRHGYNPGLPPLRTWNGQKLLWLPEKSDFPLLAPPTNYGLYEQLKQRQLTPKAGLKQSTYTSSYPRPPLCAMSWREHAVPVPPHRLHPLPHF”, the protein production entry is given as “failed”. The same measure for “MEYFLENPDHLWYLIAGISFVIELSIMGLSGPLLFFAIASLTTGILVTVGFVEGWQSEIFTVGVLTAIIAAILWKPLKSLQNSKDTTDNSSDMVGLTVLASTEINVSSGSIRYSGIDWQARLAEEANGESISAQSQCVIVAITGNIMLVKSL”: “failed”.

With “MTYEAGCGLIKALEDPDNRVRQRAVKTLGKRGNPDVLEDLMEALKDSRQPVQEAASEALRKIIAASDSVPVLVKALDATDRNVRKAAIEALWKAGTPEAIPPLLRELDDADWYLRSRAADALADIASPEAALGLIKVMDIHDSPVKKIIVNALGKIGTVEAVEGLVKALEDLEHHHHHH”, the protein production entry is reported as “failed”. The same measure for “MTEIDSNLKDAQSVAVSGHVRPDGDCVGSTLAVYNYIKDYYPDIKARLYLEPSPNIFKFMQRADEIDSSYADDTVYDLFIACDCSDTGRLGSAAKYFESAKRTLCIDHHVTNGAFADTNYIFPDASSTCELVFELLPKERITIQIAECIYTGMVHDTGVFQYSCTSKKTMDIAGSLMEMGIDYSRIIDDTFYTKTFAQNKIMGQALLNAALYLNGDVILSAVSRAEMEKYDVLPKHLDGIVNQLRVTKDIKVAVFLYENEDGTYKGSLRVNGDYDVAKVASVFGGGGHVKAAGFTIEGPLEVATDRILTAIKDNI”: “failed”; for “MTQSALHTEFGGIAALRDALARRQVSAVELAQSGLDAAQAASGLNAFLHIDPELTLAQARAADAALAAGTAGPLAGIPIAHKDAFVTRGWRTTAGSKMLAGYASPFDATVVERLAEAGAVSLGKLNCDEFAMGSGNENSAYGPVRNPWDTRAVPGGSSGGSAAAVAARLVAAATGTDTGGSVRQPAALCGVSGIKPTYGTVSRYGMIAFGSSLDQAGPLAPSSRDLLELLDVMTGFDPRDATSLQACDGQANESGRVRRGHDAAQAGYDAAGSQPLKGLRIGVPQEYFGAGLAPDVAAAVEAALAQFEQLGAVRVPVSLPRTELAIPAYYVIAPAEASSNLARYDGVRYGHRAAQYGDLNEMISRSRAEGFGDEVKRRILIGTYVLSHGYYDAYYLQAQRLRRLIAQDFQRAFADQCDVIMGPVSPTVAKNIGDNRDDPTADWLADVYTLGVSLAGLPAMSVPCGFGGQDGRRPVGLQIIGNYFDEGRLLALADRYQQVTDWHQRAPVSQDA”: “failed”.
